Test results published in patent publication US20240200091A1, “USE OF PROTOPORPHYRINOGEN OXIDASE” (BEIJING DABEINONG BIOTECHNOLOGY CO., LTD., priority 2021, published 2024).

What was measured:
Format in all cases: in vivo
[1] = tested on: transgenic soybean plants; test: flumioxazin tolerance of transgenic soybean plants (spray, grade of pesticide damage); details: for The grade of pesticide damage/plant: grade 0 / The grade of pesticide damage/plant: grade 1 / The grade of pesticide damage/plant: grade 2 / The grade of pesticide damage/plant: grade 3: 7 DAT, number of plants of 16 per genotype, grades
[2] = tested on: transgenic soybean plants; test: saflufenacil tolerance of transgenic soybean plants (spray, grade of pesticide damage); details: for The grade of pesticide damage/plant: grade 0 / The grade of pesticide damage/plant: grade 1 / The grade of pesticide damage/plant: grade 2 / The grade of pesticide damage/plant: grade 3: 7 DAT, number of plants of 16 per genotype, grades
[3] = tested on: Arabidopsis thaliana T1 plants; test: saflufenacil tolerance of transgenic Arabidopsis thaliana T1 plants (spray, grade of pesticide damage); details: for The grade of pesticide damage/plant: grade 0 / The grade of pesticide damage/plant: grade 1 / The grade of pesticide damage/plant: grade 2 / The grade of pesticide damage/plant: grade 3: 7 DAT, number of plants of 24 per genotype, grades
How it was run: (§1)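 Graded 0–3 by injured-to-total leaf area 7 days after spraying, with grades 0–1 rated highly resistant. Plants (24 per genotype, 18 days old) received water or 1× and 4× field rates (sulfentrazone 1× and 2×, 450/900 g ai/ha) of each herbicide.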

[4] = tested on: Arabidopsis thaliana T1 plants; test: oxyfluorfen tolerance of transgenic Arabidopsis thaliana T1 plants (spray, grade of pesticide damage); details: for The grade of pesticide damage/plant: grade 0 / The grade of pesticide damage/plant: grade 1 / The grade of pesticide damage/plant: grade 2 / The grade of pesticide damage/plant: grade 3: 7 DAT, number of plants of 24 per genotype, grades
How it was run: as §1

[5] = tested on: transgenic soybean plants; test: oxyfluorfen tolerance of transgenic soybean plants (spray, grade of pesticide damage); details: for The grade of pesticide damage/plant: grade 0 / The grade of pesticide damage/plant: grade 1 / The grade of pesticide damage/plant: grade 2 / The grade of pesticide damage/plant: grade 3: 7 DAT, number of plants of 16 per genotype, grades
[6] = tested on: Arabidopsis thaliana T1 plants; test: flumioxazin tolerance of transgenic Arabidopsis thaliana T1 plants (spray, grade of pesticide damage); details: for The grade of pesticide damage/plant: grade 0 / The grade of pesticide damage/plant: grade 1 / The grade of pesticide damage/plant: grade 2 / The grade of pesticide damage/plant: grade 3: 7 DAT, number of plants of 24 per genotype, grades
How it was run: as §1

[7] = tested on: Arabidopsis thaliana T1 plants; test: sulfentrazone tolerance of transgenic Arabidopsis thaliana T1 plants (spray, grade of pesticide damage); details: for The grade of pesticide: grade 0 / The grade of pesticide: grade 1 / The grade of pesticide: grade 2 / The grade of pesticide: grade 3: 7 DAT, number of plants of 24 per genotype, grades
How it was run: as §1

B1: PPO-APA: nucleotide sequence encoding Arsenophonus protoporphyrinogen oxidase PPO-AP (SEQ ID NO:65), Arabidopsis thaliana/soybean common codon usage bias (nucleic acid)
DNA: ATGTCTTACCTGCTGTTATATTCAGGGAAAAATGGACAAACCAAGAAGATCATTCTGAAAATAACAGAGTATCTTCGAAAAGAAGGAAAGCAATGTGATGTTAGAGATTTGAACATGGATAAGAACTTCAACCTTTCTGTATATCAGAAGGTGCTCGTTGGTGCCTCGATAAGATATGGTCATTTCAATCCCGCAGTCCTCAATTTTGCTCAGAATCACCAAAAGGAGTTAAACACTATTCAATCAGCTTTCTTTGGCGTGAATTTGATGGCTCGTAAACAAGGAAAAGATACTCCTGAGACAAATGTGTATGTGAGGAAGTTTCTTGCCAAAATTCCATGGCAACCAACAATCACCAATGTTTTCAGTGGAGCGTTGAGGTATCCTCAGTACAAATGGCTTGACCGGATAATGATTCAGTTTATCATGAAGATTACTGGTGGTGAAACAAACAAAAACAAGGAAGTTGAATATACTGATTGGGAAAAGGTAGAGTACTTTGCAAGAGAGTTTAATGCTTTGAAATGA
modifications: The nucleotide sequence of PPO-APA
The grade of pesticide damage/plant: grade 0 ([1]; flumioxazin 120 g ai/ha (2×)): 0 plant
The grade of pesticide damage/plant: grade 1 ([1]; flumioxazin 120 g ai/ha (2×)): 0 plant
The grade of pesticide damage/plant: grade 2 ([1]; flumioxazin 120 g ai/ha (2×)): 0 plant
The grade of pesticide damage/plant: grade 3 ([1]; flumioxazin 120 g ai/ha (2×)): 16 plant
The grade of pesticide damage/plant: grade 0 ([1]; flumioxazin 240 g ai/ha (4×)): 0 plant
The grade of pesticide damage/plant: grade 1 ([1]; flumioxazin 240 g ai/ha (4×)): 0 plant
The grade of pesticide damage/plant: grade 2 ([1]; flumioxazin 240 g ai/ha (4×)): 0 plant
The grade of pesticide damage/plant: grade 3 ([1]; flumioxazin 240 g ai/ha (4×)): 16 plant
tolerance to flumioxazin ([1]; soybean, flumioxazin at different concentrations (120 and 240 g ai/ha)): no flumioxazin tolerance
The grade of pesticide damage/plant: grade 0 ([2]; saflufenacil 50 g ai/ha (2×)): 0 plant
The grade of pesticide damage/plant: grade 1 ([2]; saflufenacil 50 g ai/ha (2×)): 0 plant
The grade of pesticide damage/plant: grade 2 ([2]; saflufenacil 50 g ai/ha (2×)): 8 plant
The grade of pesticide damage/plant: grade 3 ([2]; saflufenacil 50 g ai/ha (2×)): 8 plant
The grade of pesticide damage/plant: grade 0 ([2]; saflufenacil 100 g ai/ha (4×)): 0 plant
The grade of pesticide damage/plant: grade 1 ([2]; saflufenacil 100 g ai/ha (4×)): 0 plant
The grade of pesticide damage/plant: grade 2 ([2]; saflufenacil 100 g ai/ha (4×)): 0 plant
The grade of pesticide damage/plant: grade 3 ([2]; saflufenacil 100 g ai/ha (4×)): 16 plant
tolerance to saflufenacil ([2]; soybean, saflufenacil, compared with the control vector and CK): basically no tolerance
The grade of pesticide damage/plant: grade 0 ([3]; saflufenacil 25 g ai/ha (1×)): 0 plant
The grade of pesticide damage/plant: grade 1 ([3]; saflufenacil 25 g ai/ha (1×)): 0 plant
The grade of pesticide damage/plant: grade 2 ([3]; saflufenacil 25 g ai/ha (1×)): 0 plant
The grade of pesticide damage/plant: grade 3 ([3]; saflufenacil 25 g ai/ha (1×)): 24 plant
The grade of pesticide damage/plant: grade 0 ([3]; saflufenacil 100 g ai/ha (4×)): 0 plant
The grade of pesticide damage/plant: grade 1 ([3]; saflufenacil 100 g ai/ha (4×)): 0 plant
The grade of pesticide damage/plant: grade 2 ([3]; saflufenacil 100 g ai/ha (4×)): 0 plant
The grade of pesticide damage/plant: grade 3 ([3]; saflufenacil 100 g ai/ha (4×)): 24 plant
tolerance to saflufenacil ([3]; saflufenacil at four-fold field concentration (100 g ai/ha)): no tolerance
tolerance to saflufenacil ([3]; saflufenacil at one-fold field concentration (25 g ai/ha)): no tolerance
The grade of pesticide damage/plant: grade 0 ([4]; oxyfluorfen 180 g ai/ha (1×)): 0 plant
The grade of pesticide damage/plant: grade 1 ([4]; oxyfluorfen 180 g ai/ha (1×)): 0 plant
The grade of pesticide damage/plant: grade 2 ([4]; oxyfluorfen 180 g ai/ha (1×)): 0 plant
The grade of pesticide damage/plant: grade 3 ([4]; oxyfluorfen 180 g ai/ha (1×)): 24 plant
The grade of pesticide damage/plant: grade 0 ([4]; oxyfluorfen 720 g ai/ha (4×)): 0 plant
The grade of pesticide damage/plant: grade 1 ([4]; oxyfluorfen 720 g ai/ha (4×)): 0 plant
The grade of pesticide damage/plant: grade 2 ([4]; oxyfluorfen 720 g ai/ha (4×)): 0 plant
The grade of pesticide damage/plant: grade 3 ([4]; oxyfluorfen 720 g ai/ha (4×)): 24 plant
tolerance to oxyfluorfen ([4]; oxyfluorfen at different concentrations (180 and 720 g ai/ha), compared with the control vector and CK): basically no tolerance
The grade of pesticide damage/plant: grade 0 ([5]; oxyfluorfen 360 g ai/ha (2×)): 0 plant
The grade of pesticide damage/plant: grade 1 ([5]; oxyfluorfen 360 g ai/ha (2×)): 0 plant
The grade of pesticide damage/plant: grade 2 ([5]; oxyfluorfen 360 g ai/ha (2×)): 8 plant
The grade of pesticide damage/plant: grade 3 ([5]; oxyfluorfen 360 g ai/ha (2×)): 8 plant
The grade of pesticide damage/plant: grade 0 ([5]; oxyfluorfen 720 g ai/ha (4×)): 0 plant
The grade of pesticide damage/plant: grade 1 ([5]; oxyfluorfen 720 g ai/ha (4×)): 0 plant
The grade of pesticide damage/plant: grade 2 ([5]; oxyfluorfen 720 g ai/ha (4×)): 0 plant
The grade of pesticide damage/plant: grade 3 ([5]; oxyfluorfen 720 g ai/ha (4×)): 16 plant
tolerance to oxyfluorfen ([5]; soybean, oxyfluorfen at four-fold field concentration (720 g ai/ha)): no tolerance
The grade of pesticide damage/plant: grade 0 ([6]; flumioxazin 60 g ai/ha (1×)): 0 plant
The grade of pesticide damage/plant: grade 1 ([6]; flumioxazin 60 g ai/ha (1×)): 0 plant
The grade of pesticide damage/plant: grade 2 ([6]; flumioxazin 60 g ai/ha (1×)): 0 plant
The grade of pesticide damage/plant: grade 3 ([6]; flumioxazin 60 g ai/ha (1×)): 24 plant
The grade of pesticide damage/plant: grade 0 ([6]; flumioxazin 240 g ai/ha (4×)): 0 plant
The grade of pesticide damage/plant: grade 1 ([6]; flumioxazin 240 g ai/ha (4×)): 0 plant
The grade of pesticide damage/plant: grade 2 ([6]; flumioxazin 240 g ai/ha (4×)): 0 plant
The grade of pesticide damage/plant: grade 3 ([6]; flumioxazin 240 g ai/ha (4×)): 24 plant
tolerance to flumioxazin ([6]; flumioxazin at different concentrations (60 and 240 g ai/ha)): basically no tolerance
The grade of pesticide: grade 0 ([7]; sulfentrazone 450 g ai/ha (1×)): 0
The grade of pesticide: grade 1 ([7]; sulfentrazone 450 g ai/ha (1×)): 0
The grade of pesticide: grade 2 ([7]; sulfentrazone 450 g ai/ha (1×)): 0
The grade of pesticide: grade 3 ([7]; sulfentrazone 450 g ai/ha (1×)): 24
The grade of pesticide: grade 0 ([7]; sulfentrazone 900 g ai/ha (2×)): 0
The grade of pesticide: grade 1 ([7]; sulfentrazone 900 g ai/ha (2×)): 0
The grade of pesticide: grade 2 ([7]; sulfentrazone 900 g ai/ha (2×)): 0
The grade of pesticide: grade 3 ([7]; sulfentrazone 900 g ai/ha (2×)): 24
tolerance to sulfentrazone ([7]; sulfentrazone at different concentrations (450 and 900 g ai/ha)): no tolerance
